Source: publication PMC8484739 (The Journal of Biological Chemistry, 2021)
Substitutions are numbered along the chain they refer to. Names may count otherwise. Where two headings read alike, the source gives them in different places. Each block holds one molecule with its values, some of them ahead of it.

How the values were obtained:
[1] = molecular target: wild type CD70-His-Avi (human) (UniProt P32970); experiment: SPR
[2] = molecular target: wild type CD70-His-Avi (human) (UniProt P32970); experiment: SPR; remark: listed apart in the source
[3] = molecular target: wild type CD70-His-Avi (human) (UniProt P32970); experiment: SPR; remark: listed apart in the source
[4] = molecular target: human CD70 S137K, His-Avi tagged, purified (human) (UniProt P32970); experiment: SPR
CD70-S137E (human) = CD70-S137E (human) (UniProt P32970); experiment: SPR
CD70-A80F (human) = CD70-A80F (human) (UniProt P32970); experiment: SPR
CD70-H148E (human) = CD70-H148E (human) (UniProt P32970); experiment: SPR
CD70-H148D (human) = CD70-H148D (human) (UniProt P32970); experiment: SPR
CD70-Q61A (human) = CD70-Q61A (human) (UniProt P32970); experiment: SPR
CD70-S146A (human) = CD70-S146A (human) (UniProt P32970); experiment: SPR
CD70-H148A (human) = CD70-H148A (human) (UniProt P32970); experiment: SPR
CD70-A80R (human) = CD70-A80R (human) (UniProt P32970); experiment: SPR
CD70-S137K (human) = CD70-S137K (human) (UniProt P32970); experiment: SPR
CD70-S137A (human) = CD70-S137A (human) (UniProt P32970); experiment: SPR
wild type CD70-His-Avi = molecular target: T1, wild type CD70-His-Avi (human, UniProt P32970 45-193); experiment: SPR
T1 sequence (looked up): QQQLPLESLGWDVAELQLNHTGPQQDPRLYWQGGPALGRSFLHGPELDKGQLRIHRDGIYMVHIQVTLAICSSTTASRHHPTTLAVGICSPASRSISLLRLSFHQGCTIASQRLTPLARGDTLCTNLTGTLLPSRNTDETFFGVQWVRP

SEC = molecular target: the molecule itself; experiment: SEC

Molecule: deglycosylated human CD27 (from UniProt P26842 23-127) (receptor)
- Kd [1]: 118 nM
- half-life (calculated from kd) [1]: 1.9 min

Molecule: human CD27 wild-type (glycosylated) (from UniProt P26842 23-127) (receptor)
- Kd [2]: 121 nM
- Kd [3]: 135 nM
- Kd [1]: 134 nM
- half-life (calculated from kd) [1]: 2.67 min

B1: human CD27 wild type, glycosylated (residues A23-S127) (receptor)
chain: APKSCPERHYWAQGKLCCQMCEPGTFLVKDCDQHRKAAQCDPCIPGVSFSPDHHTRPHCESCRHCNSGLLVRNCTITANAECACRNGWQCRDKECTECDPLPNPS
modifications: N-linked glycan (glycosylated form)
- Kd [4]: 113 nM

B2: human CD27 wild-type (glycosylated) (receptor)
chain: B1 chain
modifications: N-linked glycans kept (glycosylated; no Endo H digestion)
- Kd (CD70-S137E (human)): 526 nM
- Kd (CD70-A80F (human)): 643 nM
- Kd (CD70-H148E (human)): 380 nM
- Kd (CD70-H148D (human)): 477 nM
- Kd (CD70-Q61A (human)): 205 nM
- Kd (CD70-S146A (human)): 116 nM
- Kd (CD70-H148A (human)): 236 nM
- Kd (CD70-A80R (human)): 163 nM
- Kd (CD70-S137K (human)): 135 nM
- Kd (CD70-S137A (human)): 156 nM

B7: glycosylated human CD70 (crystallisation construct) (ligand, UniProt P32970 45-193, looked up)
chain: T1 sequence (looked up)
modifications: N-linked glycans on N63 and N170; core fucosylation at N63
- stoichiometry N (SEC): 3

Second part, the molecule after the results:

- Kd (wild type CD70-His-Avi): 102 nM
- koff (wild type CD70-His-Avi): 0.00351 s⁻¹
- kon (wild type CD70-His-Avi): 34500 M⁻¹ s⁻¹
B3: CD27-K115A (receptor, human, UniProt P26842 23-127, looked up)
chain: B1 chain with K93A
modifications: glycosylated

- Kd (wild type CD70-His-Avi): 351 nM
- koff (wild type CD70-His-Avi): 0.0047 s⁻¹
- kon (wild type CD70-His-Avi): 13400 M⁻¹ s⁻¹
B4: CD27-R30A (receptor, human, UniProt P26842 23-127, looked up)
chain: B1 chain with R8A
modifications: glycosylated

- Kd (wild type CD70-His-Avi): 100 nM
- koff (wild type CD70-His-Avi): 0.00726 s⁻¹
- kon (wild type CD70-His-Avi): 72500 M⁻¹ s⁻¹
B5: CD27-N95A (receptor, human, UniProt P26842 23-127, looked up)
chain: B1 chain with N73A

- Kd (wild type CD70-His-Avi): 254 nM
- koff (wild type CD70-His-Avi): 0.00854 s⁻¹
- kon (wild type CD70-His-Avi): 33600 M⁻¹ s⁻¹
B6: CD27-S83A (receptor, human, UniProt P26842 23-127, looked up)
chain: B1 chain with S61A
modifications: glycosylated
